The results in this text go back to article PMC4488664, “An Inactive Geminin Mutant That Binds Cdt1” (Genes, 2015).

By Kd is commonly meant a measure of binding affinity in units of concentration. A higher Kd goes with a looser complex.

In assay [1] the target is mouse Cdt1^172-368 (mouse) (UniProt Q8R4E9). Briefly: ITC; MicroCal ITC200, 18 °C; 20 mM Na-HEPES pH 7.5, 300 mM NaCl, 7 mM β-mercaptoethanol; 17 injections of Geminin (WT 0.432 mM, AWA 0.297 mM) into 200 µL Cdt1 (0.044 mM). For orientation: In ITC the heat of successive injections is recorded.
In assay [2] the target is T1, mouse Cdt1^172-368 (mouse, UniProt Q8R4E9 172-368).
T1 chain: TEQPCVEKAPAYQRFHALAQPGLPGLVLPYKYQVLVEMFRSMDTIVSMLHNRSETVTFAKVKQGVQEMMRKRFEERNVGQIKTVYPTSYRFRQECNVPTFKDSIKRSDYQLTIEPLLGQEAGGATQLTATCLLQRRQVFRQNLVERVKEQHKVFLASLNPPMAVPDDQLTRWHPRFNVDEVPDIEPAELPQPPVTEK
Briefly: ITC.

Assay [3] addresses T2, mouse Cdt1^172-368 (mouse, UniProt Q8R4E9 172-368).
T2 construct: Cdt1, mouse, residues 172-368; Inserted between the NdeI and KpnI sites of pET Duet 1; source: E. coli BL21, purified, dialyzed
T2 sequence (looked up): T1 chain
Briefly: ITC; MicroCal ITC200, 18 °C; 20 mM Na-HEPES pH 7.5, 300 mM NaCl, 7 mM β-mercaptoethanol; 17 injections of Geminin (WT 0.432 mM, AWA 0.297 mM) into 200 µL Cdt1 (0.044 mM). The note with it: both partners purified.

Positions count from the first letter of the chain named.

B1: mouse Geminin^79-157 AWA (domain or fragment)
chain: TQEAFDLISKENPSSQAWAEVAEQRRKALYEALKENEKLHKEIEQKDSEIARLRKENKDLAEVAEHVQYMAEVIERLSN
B1 displayed an equilibrium dissociation constant (Kd) in assay [1] of 250 nM. This molecule also came in with a Ka with mouse Cdt1^172-368 [2] of 4e+06 M⁻¹.

B2: mouse Geminin^79-157 wild type (domain or fragment, UniProt O88513 79-157, looked up)
chain: B1 chain with A17Y, A19K
notes: Geminin, mouse, residues 79-157 (methods); Limits differ between methods (79-157) and legend (72-157); also called Geminin^WT; source: E. coli BL21, purified over nickel-NTA agarose, dialyzed
In the assay with mouse Cdt1^172-368 [2], B2 gave a Ka of 3.5e+06 M⁻¹. Also, the affinity with mouse Cdt1^172-368 [3], expressed as Kd, was 290 nM.
